B1: 6mer-1-928 (peptide)
peptide: KRYCPK
B2: 6mer-1-877 (peptide)
peptide: KKPEWR
B3: 6mer-1-881 (peptide)
peptide: KKHMER
B4: 6mer-1-885 (peptide)
peptide: RRKTPR
B5: 6mer-1-898 (peptide)
peptide: RKATKR
B6: 6mer-1-931 (peptide)
peptide: KKNWPR
B7: 6mer-1-882 (peptide)
peptide: KKPAMR
B8: 6mer-1-920 (peptide)
peptide: RRPAMR
B9: 6mer-1-895 (peptide)
peptide: KKDSKK
B10: 6mer-1-875 (peptide)
peptide: KKTNGR
B11: 6mer-1-912 (peptide)
peptide: KKETFR
B12: 6mer-1-889 (peptide)
peptide: KRIMEK
B13: 6mer-1-894 (peptide)
peptide: RKCWWR
B14: 6mer-1-911 (peptide)
peptide: KRCAAR
B15: 6mer-2-409 (peptide)
peptide: KRRRKR
B16: 6mer-2-402 (peptide)
peptide: KRYSRR
B17: 6mer-1-883 (peptide)
peptide: KKIDDK
B18: 6mer-2-405 (peptide)
peptide: KGYRKK
B19: 6mer-1-907 (peptide)
peptide: RKPAWR
B20: 6mer-1-919 (peptide)
peptide: RKDHIK
B21: 6mer-1-879 (peptide)
peptide: RRYNNR
B22: 6mer-1-897 (peptide)
peptide: RRPSIK
B23: 6mer-1-899 (peptide)
peptide: KRMKWK
B24: 6mer-2-403 (peptide)
peptide: KGVLRK
B25: 6mer-1-927 (peptide)
peptide: KRESHR
B26: 6mer-1-926 (peptide)
peptide: KRESDR
B27: 6mer-1-873 (peptide)
peptide: KRIWAR
B28: 6mer-1-918 (peptide)
peptide: RRESMR
B29: 6mer-1-909 (peptide)
peptide: RKFCMR
B30: 6mer-1-872 (peptide)
peptide: KRPCHR
B31: 6mer-1-913 (peptide)
peptide: KRFWWK
B32: 6mer-2-407 (peptide)
peptide: KQVSKR
B33: 6mer-1-929 (peptide)
peptide: RRCDHK
B34: 6mer-2-416 (peptide)
peptide: RWRLRR
B35: 6mer-2-413 (peptide)
peptide: RLILKR
B36: 6mer-1-869 (peptide)
peptide: KRKDER
B37: 6mer-2-406 (peptide)
peptide: KGIYRR
B38: 6mer-1-910 (peptide)
peptide: KRPTIR
B39: 6mer-1-888 (peptide)
peptide: KKTANK
B40: 6mer-1-915 (peptide)
peptide: RKDTWK
B41: 6mer-1-904 (peptide)
peptide: KKDTKR
B42: 6mer-1-902 (peptide)
peptide: RRDKMK
B43: 6mer-1-930 (peptide)
peptide: KKESNK
B44: 6mer-1-891 (peptide)
peptide: RKMAFR
B45: 6mer-1-900 (peptide)
peptide: RRDTGR
B46: 6mer-1-925 (peptide)
peptide: KKAMHR
B47: 6mer-2-404 (peptide)
peptide: RVLSKR
B48: 6mer-2-410 (peptide)
peptide: KRFRKK
B49: 6mer-1-893 (peptide)
peptide: RRIPHR
B50: 6mer-1-892 (peptide)
peptide: RKTEKR
B51: 6mer-2-412 (peptide)
peptide: KRFLKK
B52: 6mer-1-901 (peptide)
peptide: RKPNGR
B53: 6mer-1-917 (peptide)
peptide: KRADDK
B54: 6mer-1-905 (peptide)
peptide: RRICER
B55: 6mer-1-903 (peptide)
peptide: KKHKPR
B56: 6mer-2-415 (peptide)
peptide: KGRCKK
B57: 6mer-1-886 (peptide)
peptide: RKFSNK
B58: 6mer-1-884 (peptide)
peptide: KRYTKR
B59: 6mer-1-887 (peptide)
peptide: KRINHR
B60: 6mer-1-916 (peptide)
peptide: RRNAAK
B61: 6mer-1-896 (peptide)
peptide: KRDWIK
B62: 6mer-1-870 (peptide)
peptide: KRMSHR
B63: 6mer-2-411 (peptide)
peptide: RSRQKK
B64: 6mer-1-921 (peptide)
peptide: RKFWHR
B65: 6mer-1-914 (peptide)
peptide: RRKCVR
B66: 6mer-1-922 (peptide)
peptide: RRDWGR
B67: 6mer-1-876 (peptide)
peptide: RKYWAR
B68: 6mer-1-880 (peptide)
peptide: KRPMDK
B69: 6mer-1-871 (peptide)
peptide: KREWDR
B70: 6mer-2-417 (peptide)
peptide: RWVYKK
B71: 6mer-2-408 (peptide)
peptide: KQIYRR
B72: 6mer-1-878 (peptide)
peptide: RRKDNR
B73: 6mer-1-874 (peptide)
peptide: KRANHK
B74: 6mer-2-414 (peptide)
peptide: KWRQKK
B75: 6mer-1-906 (peptide)
peptide: KKINGK
B76: 6mer-1-924 (peptide)
peptide: RKFNWR
B77: 6mer-1-923 (peptide)
peptide: RRASDR
B78: 6mer-1-908 (peptide)
peptide: KKFMVR
B79: 6mer-1-890 (peptide)
peptide: RRTSNK

biological target: acetylcholine receptor; experiment: SPR, receptor immobilized on CM5 chip, peptide 10 uM

Binding affinity (RU)	Binder
30 RU	B1
19 RU	B2
20 RU	B3
17 RU	B4
31 RU	B5
35 RU	B6
25 RU	B7
40 RU	B8
28 RU	B9
33 RU	B10
33 RU	B11
25 RU	B12
18 RU	B13
28 RU	B14
139 RU	B15
145 RU	B16
21 RU	B17
137 RU	B18
42 RU	B19
26 RU	B20
27 RU	B21
24 RU	B22
31 RU	B23
123 RU	B24
37 RU	B25
40 RU	B26
23 RU	B27

Binding affinity (RU)	Binder
33 RU	B28
33 RU	B29
23 RU	B30
27 RU	B31
122 RU	B32
25 RU	B33
131 RU	B34
136 RU	B35
22 RU	B36
139 RU	B37
42 RU	B38
33 RU	B39
27 RU	B40
31 RU	B41
39 RU	B42
43 RU	B43
13 RU	B44
24 RU	B45
42 RU	B46
121 RU	B47
153 RU	B48
22 RU	B49
20 RU	B50
139 RU	B51
35 RU	B52
27 RU	B53
36 RU	B54

Binding affinity (RU)	Binder
37 RU	B55
149 RU	B56
17 RU	B57
26 RU	B58
30 RU	B59
33 RU	B60
11 RU	B61
25 RU	B62
121 RU	B63
36 RU	B64
39 RU	B65
34 RU	B66
19 RU	B67
21 RU	B68
30 RU	B69
151 RU	B70
139 RU	B71
27 RU	B72
18 RU	B73
135 RU	B74
30 RU	B75
29 RU	B76
43 RU	B77
37 RU	B78
18 RU	B79

Source: patent US20250011363A1, “OPTIMIZED SHORTENED PEPTIDE THAT BINDS TO ACETYLCHOLINE RECEPTOR, AND USE THEREOF” (SKINMED CO., LTD., priority 2021, published 2025)
